According to US20210388087A1 (Chugai, published 2021):
Numbering of substitutions follows the chain as printed. Values belong to the binder of their own block, whether it stands above or below them.

Experiments:
[1] = target: T1, CD3 epsilon homodimer protein (UniProt P07766 23-126); test: SPR Biacore T200, CD3e homodimer on chip, vs unaltered GLS3000 antibody
T1 construct: also called CD3 (CD3 epsilon)
T1 sequence (P07766 23-126): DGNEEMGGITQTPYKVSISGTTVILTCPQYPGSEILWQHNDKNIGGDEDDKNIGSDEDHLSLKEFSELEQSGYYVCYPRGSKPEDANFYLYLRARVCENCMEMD

[2] = target: T2, CD3 epsilon homodimer protein (UniProt P07766 23-126); test: SPR, antibody over immobilised CD3e homodimer;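 note: SPR at 25 °C with CD3 epsilon homodimer amine-coupled to a CM4 sensor chip and antibody flowed over as analyte in HBS-EP+ running buffer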
T2 construct: also called CD3 (CD3 epsilon)
T2 sequence (P07766 23-126): as above

B1: GLS3000 V94Q (antibody, name in Kabat numbering, V domains shown)
VH: QVQLVESGGGVVQPGRSLRLSCAASGFTFSNAWMHWVRQAPGKGLEWVAQIKAKSNNYATYYAESVKGRFTISRDDSKNSLYLQMNSLKTEDTAVYYCRYVHYGAYYGVDAWGQGTTVTVSS
VL: DIVMTQSPLSLPVTPGEPASISCRSSQSLVHSNRNTYLHWYQQKPGQAPRLLIYKVSNRFSGVPDRFSGSGSGTDFTLKISRVEAEDVGVYYCGQGTQQPYTFGQGTKLEIK
notes: one-arm IgG as m2
ratio of amounts bound (Z=Y/X) [1]: 0.76

B2: CE115HA000/GLS3000 S27eA (antibody, IgG1, name in Kabat numbering, V domains shown)
VH: B1 VH
VL: B1 VL with S32A, Q99V
notes: one-arm IgG1
KD ratio to GLS3000 [2]: 1.01

B3: GLS3000 Y32D (antibody, name in Kabat numbering, V domains shown)
VH: B1 VH
VL: B1 VL with Y37D, Q99V
notes: one-arm IgG as m2
ratio of amounts bound (Z=Y/X) [1]: 0.23

B5: CE115HA000/GLS3000 F55T (antibody, IgG1, name in Kabat numbering, V domains shown)
VH: B1 VH
VL: B1 VL with F60T, Q99V
notes: one-arm IgG1
KD ratio to GLS3000 [2]: 2.42

B6: CE115HA000/GLS3000 F55W (antibody, IgG1, name in Kabat numbering, V domains shown)
VH: B1 VH
VL: B1 VL with F60W, Q99V
notes: one-arm IgG1
KD ratio to GLS3000 [2]: 1.72

B7: GLS3000 V94W (antibody, name in Kabat numbering, V domains shown)
VH: B1 VH
VL: B1 VL with Q99W
notes: one-arm IgG as m2
ratio of amounts bound (Z=Y/X) [1]: 0.58

B9: CE115HA000/GLS3000 G89I (antibody, IgG1, name in Kabat numbering, V domains shown)
VH: B1 VH
VL: B1 VL with G94I, Q99V
notes: one-arm IgG1
KD ratio to GLS3000 [2]: 1.11

B10: GLS3000 Y96E (antibody, name in Kabat numbering, V domains shown)
VH: B1 VH
VL: B1 VL with Q99V, Y101E
notes: one-arm IgG as m2
ratio of amounts bound (Z=Y/X) [1]: 0.17

B11: CE115HA000/GLS3000 G89H (antibody, IgG1, name in Kabat numbering, V domains shown)
VH: B1 VH
VL: B1 VL with G94H, Q99V
notes: one-arm IgG1
KD ratio to GLS3000 [2]: 1.44

B15: GLS3000 Y32A (antibody, name in Kabat numbering, V domains shown)
VH: B1 VH
VL: B1 VL with Y37A, Q99V
notes: one-arm IgG as m2
ratio of amounts bound (Z=Y/X) [1]: 0.24

B16: CE115HA000/GLS3000 G89F (antibody, IgG1, name in Kabat numbering, V domains shown)
VH: B1 VH
VL: B1 VL with G94F, Q99V
notes: one-arm IgG1
KD ratio to GLS3000 [2]: 3.34

B18: CE115HA000/GLS3000 F55A (antibody, IgG1, name in Kabat numbering, V domains shown)
VH: B1 VH
VL: B1 VL with F60A, Q99V
notes: one-arm IgG1
KD ratio to GLS3000 [2]: 1.16

B19: GLS3000 Y96H (antibody, name in Kabat numbering, V domains shown)
VH: B1 VH
VL: B1 VL with Q99V, Y101H
notes: one-arm IgG as m2
ratio of amounts bound (Z=Y/X) [1]: 0.23

B20: CE115HA000/GLS3000 F55K (antibody, IgG1, name in Kabat numbering, V domains shown)
VH: B1 VH
VL: B1 VL with F60K, Q99V
notes: one-arm IgG1
KD ratio to GLS3000 [2]: 1.55

B21: CE115HA000/GLS3000 F55M (antibody, IgG1, name in Kabat numbering, V domains shown)
VH: B1 VH
VL: B1 VL with F60M, Q99V
notes: one-arm IgG1
KD ratio to GLS3000 [2]: 1.29

B22: CE115HA000/GLS3000 F55L (antibody, IgG1, name in Kabat numbering, V domains shown)
VH: B1 VH
VL: B1 VL with F60L, Q99V
notes: one-arm IgG1
KD ratio to GLS3000 [2]: 1.43

B26: CE115HA000/GLS3000 G89A (antibody, IgG1, name in Kabat numbering, V domains shown)
VH: B1 VH
VL: B1 VL with G94A, Q99V
notes: one-arm IgG1
KD ratio to GLS3000 [2]: 1.1

B28: CE115HA000/GLS3000 G89L (antibody, IgG1, name in Kabat numbering, V domains shown)
VH: B1 VH
VL: B1 VL with G94L, Q99V
notes: one-arm IgG1
KD ratio to GLS3000 [2]: 2.38

B29: CE115HA000/GLS3000 G89M (antibody, IgG1, name in Kabat numbering, V domains shown)
VH: B1 VH
VL: B1 VL with G94M, Q99V
notes: one-arm IgG1
KD ratio to GLS3000 [2]: 1.96

B31: CE115HA000/GLS3000 G89Q (antibody, IgG1, name in Kabat numbering, V domains shown)
VH: B1 VH
VL: B1 VL with G94Q, Q99V
notes: one-arm IgG1
KD ratio to GLS3000 [2]: 2.11

B32: CE115HA000/GLS3000 F55Y (antibody, IgG1, name in Kabat numbering, V domains shown)
VH: B1 VH
VL: B1 VL with F60Y, Q99V
notes: one-arm IgG1
KD ratio to GLS3000 [2]: 1.13

B33: CE115HA000/GLS3000 F55D (antibody, IgG1, name in Kabat numbering, V domains shown)
VH: B1 VH
VL: B1 VL with F60D, Q99V
notes: one-arm IgG1
KD ratio to GLS3000 [2]: 1.02

B34: GLS3000 Y96L (antibody, name in Kabat numbering, V domains shown)
VH: B1 VH
VL: B1 VL with Q99V, Y101L
notes: one-arm IgG as m2
ratio of amounts bound (Z=Y/X) [1]: 0.32

B38: GLS3000 V94R (antibody, name in Kabat numbering, V domains shown)
VH: B1 VH
VL: B1 VL with Q99R
notes: one-arm IgG as m2
ratio of amounts bound (Z=Y/X) [1]: 0.66

B42: CE115HA000/GLS3000 F55N (antibody, IgG1, name in Kabat numbering, V domains shown)
VH: B1 VH
VL: B1 VL with F60N, Q99V
notes: one-arm IgG1
KD ratio to GLS3000 [2]: 0.91

B45: CE115HA000/GLS3000 F55P (antibody, IgG1, name in Kabat numbering, V domains shown)
VH: B1 VH
VL: B1 VL with F60P, Q99V
notes: one-arm IgG1
KD ratio to GLS3000 [2]: 1.15

B46: CE115HA000/GLS3000 F55S (antibody, IgG1, name in Kabat numbering, V domains shown)
VH: B1 VH
VL: B1 VL with F60S, Q99V
notes: one-arm IgG1
KD ratio to GLS3000 [2]: 1.15

Other lines, results leading:

ratio of amounts bound (Z=Y/X) [1]: 0.93
B4: GLS3000 V94S (antibody, name in Kabat numbering, V domains shown)
VH: B1 VH
VL: B1 VL with Q99S
notes: one-arm IgG as m2

ratio of amounts bound (Z=Y/X) [1]: 0.93
B8: GLS3000 V94T (antibody, name in Kabat numbering, V domains shown)
VH: B1 VH
VL: B1 VL with Q99T
notes: one-arm IgG as m2

KD ratio to GLS3000 [2]: 1.2
B12: CE115HA000/GLS3000 G89N (antibody, IgG1, name in Kabat numbering, V domains shown)
VH: B1 VH
VL: B1 VL with G94N, Q99V
notes: one-arm IgG1

KD ratio to GLS3000 [2]: 1.96
B13: CE115HA000/GLS3000 G89D (antibody, IgG1, name in Kabat numbering, V domains shown)
VH: B1 VH
VL: B1 VL with G94D, Q99V
notes: one-arm IgG1

KD ratio to GLS3000 [2]: 1.27
B14: CE115HA000/GLS3000 F55R (antibody, IgG1, name in Kabat numbering, V domains shown)
VH: B1 VH
VL: B1 VL with F60R, Q99V
notes: one-arm IgG1

KD ratio to GLS3000 [2]: 1.28
B17: CE115HA000/GLS3000 F55I (antibody, IgG1, name in Kabat numbering, V domains shown)
VH: B1 VH
VL: B1 VL with F60I, Q99V
notes: one-arm IgG1

ratio of amounts bound (Z=Y/X) [1]: 0.17
B23: GLS3000 Y96D (antibody, name in Kabat numbering, V domains shown)
VH: B1 VH
VL: B1 VL with Q99V, Y101D
notes: one-arm IgG as m2

ratio of amounts bound (Z=Y/X) [1]: 0.29
B24: GLS3000 Y32F (antibody, name in Kabat numbering, V domains shown)
VH: B1 VH
VL: B1 VL with Y37F, Q99V
notes: one-arm IgG as m2

KD ratio to GLS3000 [2]: 0.92
B25: CE115HA000/GLS3000 F55E (antibody, IgG1, name in Kabat numbering, V domains shown)
VH: B1 VH
VL: B1 VL with F60E, Q99V
notes: one-arm IgG1

KD ratio to GLS3000 [2]: 1.09
B27: CE115HA000/GLS3000 F55Q (antibody, IgG1, name in Kabat numbering, V domains shown)
VH: B1 VH
VL: B1 VL with F60Q, Q99V
notes: one-arm IgG1

ratio of amounts bound (Z=Y/X) [1]: 0.63
B30: GLS3000 V94Y (antibody, name in Kabat numbering, V domains shown)
VH: B1 VH
VL: B1 VL with Q99Y
notes: one-arm IgG as m2

KD ratio to GLS3000 [2]: 1.12
B35: CE115HA000/GLS3000 F55V (antibody, IgG1, name in Kabat numbering, V domains shown)
VH: B1 VH
VL: B1 VL with F60V, Q99V
notes: one-arm IgG1

ratio of amounts bound (Z=Y/X) [1]: 1.17
B36: GLS3000 Y96F (antibody, name in Kabat numbering, V domains shown)
VH: B1 VH
VL: B1 VL with Q99V, Y101F
notes: one-arm IgG as m2

KD ratio to GLS3000 [2]: 1.8
B37: CE115HA000/GLS3000 G89P (antibody, IgG1, name in Kabat numbering, V domains shown)
VH: B1 VH
VL: B1 VL with G94P, Q99V
notes: one-arm IgG1

ratio of amounts bound (Z=Y/X) [1]: 0.24
B39: GLS3000 Y32P (antibody, name in Kabat numbering, V domains shown)
VH: B1 VH
VL: B1 VL with Y37P, Q99V
notes: one-arm IgG as m2

KD ratio to GLS3000 [2]: 1.15
B40: CE115HA000/GLS3000 F55G (antibody, IgG1, name in Kabat numbering, V domains shown)
VH: B1 VH
VL: B1 VL with F60G, Q99V
notes: one-arm IgG1

KD ratio to GLS3000 [2]: 1.8
B41: CE115HA000/GLS3000 G89K (antibody, IgG1, name in Kabat numbering, V domains shown)
VH: B1 VH
VL: B1 VL with G94K, Q99V
notes: one-arm IgG1

KD ratio to GLS3000 [2]: 34.6
B43: CE115HA000/GLS3000 G89E (antibody, IgG1, name in Kabat numbering, V domains shown)
VH: B1 VH
VL: B1 VL with G94E, Q99V
notes: one-arm IgG1

KD ratio to GLS3000 [2]: 1.02
B44: CE115HA000/GLS3000 F55H (antibody, IgG1, name in Kabat numbering, V domains shown)
VH: B1 VH
VL: B1 VL with F60H, Q99V
notes: one-arm IgG1
